Experimental data: the Immune Epitope Database (IEDB)
Values belong to the sequence of their own block, whether it stands above or below them.

How the values were obtained:
Assay in all cases: IEDB peptide-MHC binding, purified MHC/competitive/radioactivity; filed as Kd, often an IC50 or EC50 that approximates it; ≥ and ≤ were set here for values at or beyond the usual limits of such assays
HLA-A*02:02 = conditions: source organism: Vaccinia virus WR
HLA-A*02:03 = molecular target: HLA-A*02:03
HLA-A*02:06 = molecular target: HLA-A*02:06
HLA-A*03:01 = molecular target: HLA-A*03:01
HLA-A*11:01 = molecular target: HLA-A*11:01
HLA-A*31:01 = molecular target: HLA-A*31:01
HLA-A*33:01 = molecular target: HLA-A*33:01
HLA-A*68:01 = molecular target: HLA-A*68:01
[1] = source organism: Vaccinia virus WR
[2] = source organism: SARS coronavirus Tor2
[3] = source organism: Mammarenavirus machupoense
[4] = source organism: Dengue virus 2 Jamaica/1409/1983
[5] = source organism: Mammarenavirus guanaritoense
[6] = source organism: Lymphocytic choriomeningitis virus (strain Armstrong)
[7] = source organism: Vaccinia virus Copenhagen

Sequence: QTGINNVQSL
Kd (HLA-A*02:02): ≥ 20200 nM
Kd (HLA-A*02:03; [1]): ≥ 24400 nM
Kd (HLA-A*02:06; [1]): ≥ 54000 nM

Sequence: RINLLVQYGA
Kd (HLA-A*02:02): 10300 nM
Kd (HLA-A*02:03; [1]): 15300 nM
Kd (HLA-A*02:06; [1]): 7650 nM

Sequence: RQVSVKLLI
Kd (HLA-A*02:02): 17900 nM
Kd (HLA-A*02:03; [1]): 254 nM
Kd (HLA-A*02:06; [1]): 0.135 nM

Sequence: SAKQLRTRIR
Kd (HLA-A*03:01; [1]): ≥ 70100 nM
Kd (HLA-A*11:01; [1]): ≥ 45500 nM
Kd (HLA-A*31:01; [1]): 1100 nM
Kd (HLA-A*33:01; [1]): 17300 nM
Kd (HLA-A*68:01; [1]): ≥ 28800 nM

Sequence: SASAFFGMSR
Kd (HLA-A*03:01; [2]): 966 nM
Kd (HLA-A*11:01; [2]): 11.9 nM
Kd (HLA-A*31:01; [2]): 9.48 nM
Kd (HLA-A*33:01; [2]): 121 nM
Kd (HLA-A*68:01; [2]): 10 nM

Sequence: SIFPANINDK
Kd (HLA-A*03:01; [1]): 1220 nM
Kd (HLA-A*11:01; [1]): 7.48 nM
Kd (HLA-A*31:01; [1]): ≥ 70000 nM
Kd (HLA-A*33:01; [1]): ≥ 46000 nM
Kd (HLA-A*68:01; [1]): 121 nM

Sequence: SIYIAVANCV
Kd (HLA-A*02:02): 534 nM
Kd (HLA-A*02:03; [1]): 62.7 nM
Kd (HLA-A*02:06; [1]): 1000 nM

Sequence: SLETVKMGA
Kd (HLA-A*02:02): 11200 nM
Kd (HLA-A*02:03; [1]): 547 nM
Kd (HLA-A*02:06; [1]): ≥ 23400 nM

Kd (HLA-A*02:03; source organism: Homo sapiens): 23.8 nM
Kd (HLA-A*02:06; source organism: Homo sapiens): 10600 nM
Sequence: SLIGSKTQI

Sequence: SLRCGACIRR
Kd (HLA-A*03:01; [2]): 265 nM
Kd (HLA-A*11:01; [2]): 963 nM
Kd (HLA-A*31:01; [2]): 16.3 nM
Kd (HLA-A*33:01; [2]): 89.5 nM
Kd (HLA-A*68:01; [2]): 915 nM

Sequence: SLVSKHWEL
Kd (HLA-A*02:02): 1.16 nM
Kd (HLA-A*02:03; [1]): 36 nM
Kd (HLA-A*02:06; [1]): 34.9 nM

Sequence: SMNVAVIDK
Kd (HLA-A*03:01; [1]): ≥ 67700 nM
Kd (HLA-A*11:01; [1]): 0.278 nM
Kd (HLA-A*31:01; [1]): 612 nM
Kd (HLA-A*33:01; [1]): 7080 nM
Kd (HLA-A*68:01; [1]): 4880 nM

Sequence: SQASSRSSSR
Kd (HLA-A*03:01; [2]): 7970 nM
Kd (HLA-A*11:01; [2]): 1530 nM
Kd (HLA-A*31:01; [2]): 470 nM
Kd (HLA-A*33:01; [2]): 1320 nM
Kd (HLA-A*68:01; [2]): 400 nM

Sequence: SSFDYCGTDH
Kd (HLA-A*03:01; [3]): ≥ 70000 nM
Kd (HLA-A*11:01; [3]): ≥ 69700 nM
Kd (HLA-A*31:01; [3]): ≥ 31800 nM
Kd (HLA-A*33:01; [3]): ≥ 42000 nM
Kd (HLA-A*68:01; [3]): ≥ 41800 nM

Sequence: SSRVDRYSKK
Kd (HLA-A*03:01; [1]): 285 nM
Kd (HLA-A*11:01; [1]): 332 nM
Kd (HLA-A*31:01; [1]): 835 nM
Kd (HLA-A*33:01; [1]): ≥ 29600 nM
Kd (HLA-A*68:01; [1]): 3040 nM

Sequence: STFNMWREIL
Kd (HLA-A*02:02): 3120 nM
Kd (HLA-A*02:03; [1]): 907 nM
Kd (HLA-A*02:06; [1]): 3360 nM

Sequence: STTENAAYQV
Kd (HLA-A*02:02): 928 nM
Kd (HLA-A*02:03; [1]): 4700 nM
Kd (HLA-A*02:06; [1]): 101 nM

Sequence: SVKSFEIDK
Kd (HLA-A*03:01; [2]): 1560 nM
Kd (HLA-A*11:01; [2]): 137 nM
Kd (HLA-A*31:01; [2]): 1110 nM
Kd (HLA-A*33:01; [2]): 12200 nM
Kd (HLA-A*68:01; [2]): 729 nM

Sequence: TAFQHQNSKK
Kd (HLA-A*03:01; [2]): 332 nM
Kd (HLA-A*11:01; [2]): 139 nM
Kd (HLA-A*31:01; [2]): ≥ 54300 nM
Kd (HLA-A*33:01; [2]): ≥ 70000 nM
Kd (HLA-A*68:01; [2]): 16.1 nM

Sequence: TAVCMKCFK
Kd (HLA-A*03:01; [1]): 211 nM
Kd (HLA-A*11:01; [1]): 10.2 nM
Kd (HLA-A*31:01; [1]): 448 nM
Kd (HLA-A*33:01; [1]): 4460 nM
Kd (HLA-A*68:01; [1]): 11.3 nM

Sequence: TFIMLEGETK
Kd (HLA-A*03:01; [1]): 38.8 nM
Kd (HLA-A*11:01; [1]): 11.8 nM
Kd (HLA-A*31:01; [1]): 816 nM
Kd (HLA-A*33:01; [1]): 3420 nM
Kd (HLA-A*68:01; [1]): 176 nM

Sequence: TLDQLEDSEY
Kd (HLA-A*03:01; [1]): 8620 nM
Kd (HLA-A*11:01; [1]): 1710 nM
Kd (HLA-A*31:01; [1]): 14400 nM
Kd (HLA-A*33:01; [1]): ≥ 40300 nM
Kd (HLA-A*68:01; [1]): 4070 nM

Sequence: TLLATVTGGI
Kd (HLA-A*02:03; [4]): 12.8 nM

Sequence: TLLGLILFVL
Kd (HLA-A*02:02): 169 nM
Kd (HLA-A*02:03; [1]): 796 nM
Kd (HLA-A*02:06; [1]): 672 nM

Sequence: TMEIEDQEYH
Kd (HLA-A*03:01; [5]): ≥ 70000 nM
Kd (HLA-A*11:01; [5]): ≥ 69700 nM
Kd (HLA-A*31:01; [5]): ≥ 70000 nM
Kd (HLA-A*33:01; [5]): ≥ 70000 nM
Kd (HLA-A*68:01; [5]): 8530 nM

Sequence: TQTAGPWHL
Kd (HLA-A*02:06; [4]): 435 nM

Sequence: VIEDITFLR
Kd (HLA-A*03:01; [1]): 1560 nM
Kd (HLA-A*11:01; [1]): 54.6 nM
Kd (HLA-A*31:01; [1]): 27.6 nM
Kd (HLA-A*33:01; [1]): 420 nM
Kd (HLA-A*68:01; [1]): 11.8 nM

Sequence: VSIILANER
Kd (HLA-A*03:01; [1]): ≥ 78000 nM
Kd (HLA-A*11:01; [1]): 47.2 nM
Kd (HLA-A*31:01; [1]): 130 nM
Kd (HLA-A*33:01; [1]): 7690 nM
Kd (HLA-A*68:01; [1]): 8.48 nM

Sequence: VTFRERYSYK
Kd (HLA-A*03:01; [1]): 0.457 nM
Kd (HLA-A*11:01; [1]): 3.19 nM
Kd (HLA-A*31:01; [1]): 3360 nM
Kd (HLA-A*33:01; [1]): 2480 nM
Kd (HLA-A*68:01; [1]): 2.83 nM

Sequence: VTMFEALPH
Kd (HLA-A*03:01; [6]): 467 nM
Kd (HLA-A*11:01; [6]): 15.6 nM
Kd (HLA-A*31:01; [6]): ≥ 77900 nM
Kd (HLA-A*33:01; [6]): ≥ 77700 nM
Kd (HLA-A*68:01; [6]): 18700 nM

Sequence: VVQRCASNK
Kd (HLA-A*03:01; [2]): 663 nM
Kd (HLA-A*11:01; [2]): 639 nM
Kd (HLA-A*31:01; [2]): 8260 nM
Kd (HLA-A*33:01; [2]): ≥ 77700 nM
Kd (HLA-A*68:01; [2]): ≥ 48300 nM

Sequence: VVSTGYHFR
Kd (HLA-A*03:01; [2]): 31.5 nM
Kd (HLA-A*11:01; [2]): 8.55 nM
Kd (HLA-A*31:01; [2]): 1.69 nM
Kd (HLA-A*33:01; [2]): 41.2 nM
Kd (HLA-A*68:01; [2]): 7.34 nM

Sequence: YANLDDVYSY
Kd (HLA-A*03:01; [1]): ≥ 25700 nM
Kd (HLA-A*11:01; [1]): 38.2 nM
Kd (HLA-A*31:01; [1]): ≥ 33300 nM
Kd (HLA-A*33:01; [1]): 15600 nM
Kd (HLA-A*68:01; [1]): 1650 nM

Sequence: YLLVKWYKK
Kd (HLA-A*03:01; [7]): 113 nM
Kd (HLA-A*11:01; [7]): 189 nM
Kd (HLA-A*31:01; [7]): 12 nM
Kd (HLA-A*33:01; [7]): 30.5 nM
Kd (HLA-A*68:01; [7]): ≥ 23400 nM

Sequence: YLTMKAIEK
Kd (HLA-A*03:01; [1]): 384 nM
Kd (HLA-A*11:01; [1]): 867 nM
Kd (HLA-A*31:01; [1]): 11400 nM
Kd (HLA-A*33:01; [1]): 9830 nM
Kd (HLA-A*68:01; [1]): 1010 nM

Sequence: YSHLLPTQR
Kd (HLA-A*03:01; [1]): 4030 nM
Kd (HLA-A*11:01; [1]): 1170 nM
Kd (HLA-A*31:01; [1]): 23 nM
Kd (HLA-A*33:01; [1]): 892 nM
Kd (HLA-A*68:01; [1]): 25.5 nM
